US20100098683A1 (Dana-Farber, published 2010)

Target: T1, hFc-MUC1-C/ED (MUC1-C extracellular domain fused to human Fc) (human, UniProt P15941 1098-1155, secreted from CHO-K1 cells; the filing reports N-linked glycosylation of MUC1-C at Asn-36)
T1 construct: Purified on protein A; also called hFc-MUC1-C extracellular domain; not shown: human Fc fragment (hFc) amplified from the CD5-IgG1 plasmid (Aruffo et al., 1990)
T1 sequence: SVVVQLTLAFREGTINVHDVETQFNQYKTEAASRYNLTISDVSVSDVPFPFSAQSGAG
Assay: SPR (BIACORE 3000, 25 C), galectin-3(63-250) amine-coupled to a CM5 chip, hFc-MUC1-C/ED injected at 0-100 nM, 1:1 binding with drifting baseline; galectin-3(63-250), CRD fragment

B1: galectin-3(63-250) (ligand)
chain: YHGAPGAYPGAPAPGVYPGPPSGPGAYPSSGQPSAPGAYPATGPYGAPAGPLIVPYNLPLPGGVVPRMLITILGTVKPNANRIALDFQRGNDVAFHFNPRFNENNRRVIVCNTKLDNNWGREERQSVFPFESGKPFKIQVLVEPDHFKVAVNDAHLLQYNHRVKKLNEISKLGISGDIDLTSASYTMI
notes: Fragment that contains the CRD, purified from E. coli and coupled to a CM5 chip
- Kd: 9.8 nM
